Data reported in patent publication US9457062B2, “Chaperonin 10-induced immunomodulation” (CBIO LIMITED, priority 2005, dated 2016).

Assays:
CD14 = molecular target: T1, CD14 (Homo sapiens, UniProt P08571); test: FRET with CD14 on MonoMac 6 cells; type: binding
T1 construct: MonoMac 6 cells (a human monocytic cell line); endogenous in cells; host or cells: MonoMac 6
T1 sequence (P08571 20-345): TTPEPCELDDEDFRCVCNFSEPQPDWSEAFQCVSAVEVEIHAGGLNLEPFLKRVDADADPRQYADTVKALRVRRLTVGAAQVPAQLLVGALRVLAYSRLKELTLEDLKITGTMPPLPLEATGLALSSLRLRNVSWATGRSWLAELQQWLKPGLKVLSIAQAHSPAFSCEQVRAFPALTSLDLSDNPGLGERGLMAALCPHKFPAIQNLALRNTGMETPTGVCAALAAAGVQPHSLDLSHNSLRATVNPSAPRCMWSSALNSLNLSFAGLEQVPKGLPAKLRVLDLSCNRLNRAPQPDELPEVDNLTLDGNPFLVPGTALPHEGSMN
Description: (§1) Cell labeling for FRET. MonoMac 6 cells (a human monocytic cell line) were labeled with 100 μl of a mixture of donor conjugated antibody (Cy3) and acceptor conjugated antibody (Cy5). For labelling of Cpn10, an anti-Cpn10 rabbit polyclonal antibody was used. […] The cells were fixed in order to prevent potential re-organisation of the proteins during the course of the experiment. Confocal imaging. Cells were imaged on a Carl Zeiss, Inc. LSM510 confocal microscope (with an Axiovert 200 fluorescent microscope) using a 1.4 NA 63× Zeiss objective. The images were analysed using LSM 2.5 image analysis software (Carl Zeiss, Inc.). Cy3 and Cy5 were detected using the appropriate filter sets. Using typical exposure times for image acquisition (less than 5 s), no fluorescence was observed from a Cy3-labelled specimen using the Cy5 filters, nor was Cy5 fluorescence detected using the Cy3 filter sets. FRET measurements. […] In the present study, FRET was measured using a method as previously described (Kenworthy and […] (1998) Journal of Cell Biology 142: 69-84; Kenworthy and […] (1998) in Gelb, M. H. (Ed.) Methods in molecular Biology. Humana Press Inc, Totowa, N.J. pp 37-49). Briefly, samples were labeled with donor and acceptor conjugated antibodies, and energy transfer was detected as an increase in donor fluorescence (dequenching) after complete photobleaching of the acceptor molecule. […]

TLR4 = molecular target: T2, TLR4 (Homo sapiens, UniProt O00206); test: FRET with TLR4 on MonoMac 6 cells; type: binding
T2 construct: endogenous in cells; host or cells: freshly isolated human monocytes; human monocyte-derived DC
Description: as §1

GM1 = test: FRET with GM1 (lipid rafts) on MonoMac 6 cells; type: binding, human; settings: donor GM1
Description: Cell labeling for FRET. MonoMac 6 cells (a human monocytic cell line) were labeled with 100 μl of a mixture of donor conjugated antibody (Cy3) and acceptor conjugated antibody (Cy5). For labelling of Cpn10, an anti-Cpn10 rabbit polyclonal antibody was used. The cells were rinsed twice in PBS/0.02% BSA, prior to fixation with 4% formaldehyde for 15 min. The cells were fixed in order to prevent potential re-organisation of the proteins during the course of the experiment. Confocal imaging. Cells were imaged on a Carl Zeiss, Inc. LSM510 confocal microscope (with an Axiovert 200 fluorescent microscope) using a 1.4 NA 63× Zeiss objective. The images were analysed using LSM 2.5 image analysis software (Carl Zeiss, Inc.). Cy3 and Cy5 were detected using the appropriate filter sets. Using typical exposure times for image acquisition (less than 5 s), no fluorescence was observed from a Cy3-labelled specimen using the Cy5 filters, nor was Cy5 fluorescence detected using the Cy3 filter sets. FRET measurements. FRET is a non-invasive imaging technique used to determine molecular proximity. […]
In the present study, FRET was measured using a method as previously described (Kenworthy and Edidin (1998) Journal of Cell Biology 142: 69-84; Kenworthy and Edidin (1998) in Gelb, M. H. (Ed.) Methods in molecular Biology. Humana Press Inc, Totowa, N.J. pp 37-49). […]

Cpn10 promoter = Cpn10 promoter luciferase reporter (pCAT/LUC-CPN) in RAW264.7 cells; type: cell-based, mouse; settings: optimal agonist concentrations (FIG. 18H): IFNγ 1 ng/ml, IL-1β 1 ng/ml, TNF-α 100 ng/ml
Text: Reagents. Recombinant human Cpn10 was produced to GMP specifications by BresaGen Limited (Adelaide, Aus) essentially as described previously (Johnson, B. 2005. J. Biol Chem 280:4037-4047). […] For FACS analysis, a cysteine residue was engineered onto the C-terminus of Cpn10 and labeled with AlexFluor647 (Invitrogen) according to manufacturer's instructions. […] TLR ligands and cytokines included: E. coli LPS (strain 055:B5, Sigma), E. coli ultra-pure LPS (0111:B4 Sigma), S. aureus LTA, B. subtilis LTA, S. aureus PGN, B. subtilis PGN, zymosan cell wall from S. cerevisae, poly(I:C), imiquimod R837, CpG ODN 1826 and ODN2216, GpC ODN1826 control, (all from Invivogen, San Diego, Calif.), recombinant mouse IFNγ, (Chemicon), IL-1β (PeproTech), and recombinant human TNF-α (Invivogen). Antibodies. Rabbit polyclonal antibodies were raised against Cpn10 and affinity purified at CBio. […] After 24 h cells were harvested and cell viability assessed by trypan blue dye exclusion. […] Cells were washed, harvested in Cell Culture Lysis Reagent (CCLR, Promega) and firefly luciferase signal measured using the Luciferase Assay System (Promega) and the Wallac Victor 2 Multilabel Counter (Perkin-Elmer). […] Cells were assessed for viability, pooled per condition (n=4), pelleted by centrifugation and resuspended in CCLR.

T2 sequence (O00206 24-839): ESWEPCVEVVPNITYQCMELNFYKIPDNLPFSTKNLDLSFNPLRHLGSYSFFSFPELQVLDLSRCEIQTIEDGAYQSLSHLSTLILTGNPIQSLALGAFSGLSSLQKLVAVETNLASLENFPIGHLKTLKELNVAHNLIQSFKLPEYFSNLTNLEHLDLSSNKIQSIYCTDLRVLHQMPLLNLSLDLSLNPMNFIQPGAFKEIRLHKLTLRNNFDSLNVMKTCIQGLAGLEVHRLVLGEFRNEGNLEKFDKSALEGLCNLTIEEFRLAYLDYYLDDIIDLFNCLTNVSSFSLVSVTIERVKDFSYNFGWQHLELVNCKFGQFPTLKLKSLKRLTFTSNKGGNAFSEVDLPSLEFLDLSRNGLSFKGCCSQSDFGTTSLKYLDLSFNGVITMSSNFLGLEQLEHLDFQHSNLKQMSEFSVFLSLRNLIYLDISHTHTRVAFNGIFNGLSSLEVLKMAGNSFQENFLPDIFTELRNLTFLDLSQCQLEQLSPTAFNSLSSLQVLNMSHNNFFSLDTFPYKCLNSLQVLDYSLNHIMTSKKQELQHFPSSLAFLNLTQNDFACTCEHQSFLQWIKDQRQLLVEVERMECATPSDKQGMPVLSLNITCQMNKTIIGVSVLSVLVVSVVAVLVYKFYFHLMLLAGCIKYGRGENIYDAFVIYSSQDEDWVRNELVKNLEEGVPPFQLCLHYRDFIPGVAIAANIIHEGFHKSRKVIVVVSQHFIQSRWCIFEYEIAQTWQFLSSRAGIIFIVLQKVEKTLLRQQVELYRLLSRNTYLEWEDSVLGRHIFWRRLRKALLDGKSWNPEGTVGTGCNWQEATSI

B1: Hsp60: chaperonin 60, protein folding partner of Cpn10 (protein)
chain: AKDVKFGADARALMLQGVDLLADAVAVTMGPKGRTVIIEQSWGSPKVTKDGVTVAKSIDLKDKYKNIGAKLVQDVANNTNEEAGDGTTTATVLARSIAKEGFEKISKGANPVEIRRGVMLAVDAVIAELKKQSKPVTTPEEIAQVATISANGDKEIGNIISDAMKKVGRKGVITVKDGKTLNDELEIIEGMKFDRGYISPYFINTSKGQKCEFQDAYVLLSEKKISSIQSIVPALEIANAHRKPLVIIAEDVDGEALSTLVLNRLKVGLQVVAVKAPGFGDNRKNQLKDMAIATGGAVFGEEGLTLNLEDVQPHDLGKVGEVIVTKDDAMLLKGKGDKAQIEKRIQEIIEQLDVTTSEYEKEKLNERLAKLSDGVAVLKVGGTSDVEVNEKKDRVTDALNATRAAVEEGIVLGGGCALLRCIPALDSLTPANEDQKIGIEIIKRTLKIPAMTIAKNAGVEGSLIVEKIMQSSSEVGYDAMAGDFVNMVEKGIIDPTKVVRTALLDAAGVASLLTTAEVVVTEIPKEEKDPGMGAMGGMGGGMGGGMF
Question: B1 was tested. Which “E ± ΔE (%) energy transfer efficiency” value (CD14; MM6 cells stimulated with LPS) did it give?
Answer: The value was 4 ± 2.0%.

Question: What about the “E ± ΔE (%) energy transfer efficiency” value (CD14; Unstimulated MM6 cells) of the same molecule?
Answer: Its value is 6 ± 0.5%.

Question: And the “E ± ΔE (%) energy transfer efficiency” value (TLR4; MM6 cells stimulated with LPS)?
Answer: Its value is 6 ± 1.0%.

Question: What about the “E ± ΔE (%) energy transfer efficiency” value (TLR4; Unstimulated MM6 cells) of the same molecule?
Answer: Its value is 5 ± 1.0%.

Question: And the “E ± ΔE (%) energy transfer efficiency” value (GM1; MM6 cells stimulated with LPS)?
Answer: The value was 8 ± 2.0%.

Question: And the “E ± ΔE (%) energy transfer efficiency” value (GM1; Unstimulated MM6 cells)?
Answer: Its value is 6 ± 0.5%.

B2: IFNγ: recombinant mouse IFNγ (Chemicon), non-TLR agonist (protein, UniProt P01580 23-155, looked up)
Interferon gamma: HGTVIESLESLNNYFNSSGIDVEEKSLFLDIWRNWQKDGDMKILQSQIISFYLRLFEVLKDNQAISNNISVIESHLITTFFSNSKAKKDAFMSIAKFEVNNPQVQRQAFNELIRVVHQLLPESSLRKRKRSRC
Question: Which “up-regulation of the Cpn10 promoter” value (Cpn10 promoter) does the source give for B2 here?
Answer: The value was “did not induce substantial up-regulation”.
